Assay results from US20240245805A1 (Orna Therapeutics, Inc., priority 2020, published 2024).

B1: Human coxsackievirus A2 (nucleic acid)
DNA: ACCTTTGTGCGCCTGTTTTATATCCCCACCCCGAGTAAACGTTAGAAGTTACGCAACCCCGATCAATAGTAGGTGTAGCACTCCAGCTGCATCGAGATCAAGCACTTCTGTCTCCCCGGACCGAGTATCAATAGACTGCTAACGCGGTTGAAGGAGAAAACGTTCGTTACCCGGCCAATTACTTCGAGAAGCCCAGTAGTGCCGTGAAAGTTGCGGAGTGTTTCGCTCAGCACTTCCCCCGTGTAGATCAGGCTGATGAGTCACCGCGATCCCCACAGGTGACTGTGGCGGTGGCTGCGTTGGCGGCCTGCCTATGGGGCAACCCATAGGACGCTCTAATACAGACATGGTGCGAAGAGCCTATTGAGCTAATTGGTAGTCCTCCGGCCCCTGAATGCGGCTAATCCTAACTGCGGAGCACATGCCCTCAAACCAGGGGGTGGTGTGTCGTAACGGGTAACTCTGCAGCGGAACCGACTACTTTGGGTGTCCGTGTTTCTTTTTATTCTTATAATGGCTGCTTATGGTGACAATTAAAGAATTGTTACCATATAGCTATTGGATTGGCCATCCGGTGACTAACAAATCGCTCATATACCAGTTTGTTGGTTTTGTTCCCTTATCACATACAGCTCATAACACCCTCTTATATTTACTACAATTGAATAGCAAGAA
modifications: source: /note="Description of Unknown: Human coxsackievirus A2 sequence"
B2: Antarctic penguin virus A (nucleic acid)
DNA: CTAGGAGACTACGCAGTGGGATAAGATGACTATGATGTCGTACGGGCAGAAGCCAGTACAGTCGAAGTCGAGACCGACGTCGAGGATTTGACTCTGCCTGACCTAGTGCCATC
modifications: chemistry not fully specified; the letters are possibly those of the target site
B3: Equine arteritis virus (nucleic acid)
chain: GCTCGAAGTGTGTATGGTGCCATATACGGCTCACCACCATATACACTGCAAGAATTACTATTCTTGTGGGCCCCTCTCGGTAAATCCTAGAGGGCTTTCCTCTCGTTATTGCGAGATTCGTCGTTAGATAACGGCAAGTTCCCTTTCTTACTATCCTATTTTCATCTTGTGGCTTGACGGGTCACTGCCATCGTCGTCGATCTCTATCAACTACCCTTGCGACT
modifications: lipid formulation; source: /note="Description of Unknown: Equine arteritis virus sequence"
B4: Enterovirus AN12 (nucleic acid, listed as Enterovirus sp.)
chain: TACCGCTGCACCAGTGAGCTGGTACGCTAGTACCTTCGCACGGAGTAGATGGCATCCCCCACCCCGTAACTTAGAAGCAAAGTACACATCTGGCCAATAGTGGCGCTGCATCCAGCCGCGCAACGGTCAAGCACTTCTGTTTCCCCGGTCCGCAAGGGTCGTTATCCGCCCAGTCCACTACGGAAAGCCTACTAACCATTGAAGCTATCGAGAGGTTGCGCTCGGCCACGACCCCGGTGGTAGCTCTGAGTGATGGGGCTCGCAAACACCCCCGTGGTAACACGGATGCTTGCCCGCGCGTGCACTCGGGTTCAGCCTATTGGTTGTTCACCTCAACATAGTGTAAATGGCCAAGAGCCTACTGTGCTGGATTGGTTTTCCTCCGGAGCCGTGAATGCTGCTAATCCCAACCTCCGAGCGTGTGCGCACAATCCAGTGTTGCTACGTCGTAACGCGTAAGTTGGAGGCGGAACAGACTACTTTCGGTACTCCGTGTTTCTTTTGTTTTATTTTGAATTTTATGGTGACAATTGCTGAGATTTGCGAATTAGCGACTCTACCGCTGAACATTGCCCTGTACTACCTAATCGCATTTCACAAAACCTCAGAGATACCAAGCTCTTACATTGATCTGCTTGTTTTCCTGAATCTCAAATATAAATTGGAACAAGCAAA
modifications: lipid formulation
B5: Enterovirus sp. isolate CPML (nucleic acid, listed as Enterovirus sp.)
chain: ACTCTGGTATCACGGTACCTTTGCACGCCTATTTTATACCCCTTCCCCATCGTAACTTAGAAGCAACAAACAAACTGCCCAATAGCAGCACAACACCCAGTTGTGTTAGGGGCAAGCACTTCTGTTTCCCCGGAAGGGTCTGACGGTATGCTGTACCCACGGCAGAAGTATGACCTACCGTTAACCGGCCATGTACTTCGAGAAGCCTAGTACCATTATGAAGGTTGATTGATGTTACGCTCCCCAGCAACCCCAGCTGGTAGTTCTGGTCGATGAGTCTCGGCATTCCCCACGGGCGACCGTGGCCGAGGCTGCGTTGGCGGCCAGCCTACACCATACGGTGTAGGACGTCAAGATACTGACATGGTGTGAAGAGCCTATTGAGCTACGTGGTAGTCCTCCGGCCCCTGAATGCGGCTAATCCTAACTCCGGAGCATCCGCCAGTAAGCCCACTGGAAGGGTGTCGTAATGCGAAAGTCTGGAGCGGAACCGACTACTTTGGGTGTCCGTGTTTCCTGTTTTACTTATTGTTTGGCTGCTTATGGTGACAACTTATAGTTATCATCATAAGCTACTTGGTCTTGCCAACCGGAGAATTATTTGGTTATTTGTTGGTTTCATAAACCTACAGTCGTATTTTCCTGTCTTATTAATTGTTCTCAAAATTAACAACA
modifications: lipid formulation
B6: Icavirus (nucleic acid)
DNA: CGAAGTTTAAGCTAAGCACCCTCGGGCGTTCCCGGATTATGTGATCACATCAATTTGATGGCTGGTCACCACGCAACGCCTGGAGAGATACTCTTACTTTTCTCTTAAGATCCCCGGTCATTTGACGCTTGTAGGATGATAGGGTTATTTTCCACTATAAATACTTTCATACTCTTGGATGTTCTATATCCAAGACGGGAGGACCTACCCCGTACCCCTTAGAGGTGAGATGCCAAGAACAGGCCCTTTCTGTTCTCTCGACAATGGCATCATAGGCAACAAGCATCACACCAAGATTGCTAAGTTTTGTTAAGAGTTCTTCAAGCTATAGGGTGGCTGTAGCGACCTTCTGATGCCTGCGGATTTCCCCACGGAGCGATCCGTGCCACAGGGGCCAAAAGCCACGGCTAACGCCCATCAGGAGCGGCACTTACCCCGTGCCCCACCCTTGAAACTTGAATGTTCACACTGGCTTCTCTCGGCTTTCTGAACTGTCTGCTTGTTGGGGCCCCGAAGGATGCCCTGGAGGTACCCCATTTTATGGGATCTGACCAGGGGACACCTCAGCTCTCTAAGTTGCTGGTGTTTAAAAAACGTCTAAGGGCCCCCACCCCTTAGGTGGAGGGATCCACCTTTCCTTTATTTTTTAAAACTCTTTTATGGTCACAATTGTTT
modifications: source: /note="Description of Unknown: Icavirus sequence"
B7: Equine rhinitis A virus (nucleic acid)
chain: AAGGGTTACTGCTCGTAATGAGAGCACATGACATTTTGCCAAGATTTCCTGGCAATTGTCACGGGAGAGAGGAGCCCGTTCTCGGGCACTTTTCTCTCAAACAATGTTGGCGCGCCTCGGCGCGCCCCCCCTTTTTCAGCCCCCTGTCATTGACTGGTCGAAGGCGCTCGCAATAAGACTGGTCGTTGCTTGGCTTTTCTATTGTTTCAGGCTTTAGCGCGCCCTTGCGCGGCGGGCCGTCAAGCCCGTGTGCTGTACAGCACCAGGTAACCGGACAGCGGCTTGCTGGATTTTCCCGGTGCCATTGCTCTGGATGGTGTCACCAAGCTGGCAGATGCGGAGTGAACCTTACGAAGCGACACACCTGTGGTAGCGCTGCCCAGAAGGGAGCGGAGCTCCCCCGCCGCGAGGCGGTCCTCTCTGGCCAAAAGCCCAGCGTTAATAGCGCCTTCTGGGATGCAGGAACCCCACCTGCCAGGTGTGAAGTGGACTAAGTGGATCTCCAATTTGGCCTGTTCTGAACTACACCATCTACTGCTGTGAAGAATGTCCTGAAGGCAAGCTGGTTACAGCCCTGATCAGGAGCCCCGCTCGTGACTCTCGATCGACGCGGGGTCAAAAACTGTCTAAGCAGCAGCAGAAACGCGGGAGCGTTTCTTTTTCCTCATTTGTTTC
modifications: lipid formulation; Equine rhinitis A virus
B8: Falcon picornavirus (nucleic acid)
chain: CGCTTGGAATAAGTTGAGAGGAATTATGCATGCTAGTTGTGTTTGTTTACAACTAATTGTTCTAATCCAAGTGAAGCTCTTCGCTTGGGGCGGCACGACACTTGCCGTAATTCTTCTACCGTCCCTCCACACCTTGTGGATGAAGGGCCGGATGTGTGGCCTCTGGCTAACCCCTCTCTCTGGGGTGATGCTACTGGATGTTTTACTCCTAGACCAAATCACATGAACTCCTCTTGATCCACTTCGGTGGGGCTATGAGCCTGCGGATTAATAGCTGGCGACAGCTACCCCAGGGGCCAAAAGCCACGGTGTTAGCAGCACCCTCATAGTCTGATGCCCAAGGGCTGATGTTGGGAGCTAGTAGTGTGTGTCTGGCCTATGTTTAGGACTTCTGGCCAAGCGCAGAGGAGTGGGGCTGAAGGATGCCCAGAAGGTACCCGTAGGTAACCTTAAGAGACTATGGATCTGATCTGGGGCCCCCTCACGTGGCTTTACCACGTGTTGGGGGTTAAAAAACGTCTAGGCCCCACCAGCCCACGGGAGTGGGCTTTCCCTTAAAAAGCCCAACAATATTTATGGTGACAATTCACTGTTTCTTCTTTGCAATTTTTGTATTCTTGGACTCCTTATTTTTTGTTTGCTTGATTTTAGTGGACATTCAGATTCAAATACAAA
modifications: lipid formulation; source: /note="Description of Unknown: Falcon picornavirus sequence"
B9: Equine rhinitis B virus 1 (nucleic acid)
chain: CGACAGGCACAGGTCGCTCCGAGTTCTAGTAGTGTGGGAACTTGTTACTACTGATGAAACGAGGTAGTGACACTCAGTACCTGCGAACGAGGTCGGGGCCCTCCCTTCTTCCTTCACCCAACTTTCACTTTTCGTTCCACTTTAGCAGGGGTCTTCTTTCTATCCCCCTGGCGGCATTGGAACTAGCCGTCGCGTCTTAACGCGCAGCCCTGAAGGCCCCACACCTTGTGGATCTTGCCGTGGGTATGTTTCTGGCATGTGTTTCTCAAGCCTGCAACCGAAGCCGAACAGCCACATGAACAGTTTGAGCGTGGTAGCGCTGTGTGAGTTGGCGGTGGATCCCCCTCGTGGTAACACGAGCCCCCGTGGCCAAAAGCCCAGTGTTTACAGCACCTCTCACATCCAGGACGACCCCATCCTGGCGCTCACTCTTAGTAGTATGGCTTAGTACGCATTAGGTGGTAAGCCGAGCTCTCCCTCGGCCTTGTTCTGAATGCACACATGTCTAGGGGCTAAGGATGTCCTACAGGTACCCGCACGTAACCTTCAGAGAGTGCGGATCTGAGTAGGAGACCGTGGTGCACTGCTTTACAGATGCAGCCCGGTTTAAAAAGCGTCTATGCCCCTACAGGGTAGCGGTGGGCCGCGCCCTTTCCTTTTAAAACTACTTGTTCT
modifications: lipid formulation; source: /note="Description of Unknown: Equine rhinitis B virus 1 sequence"

system: HEK293 cells; type: cell-based, human; conditions: circular RNA encoding Gluc with the listed IRES (UTR truncated to 675 nt) transfected into HEK293 cells; supernatant after 24 hours

Molecule	Expression (luminescence from secreted Gluc protein)
B1	7.75E+07
B2	8.42E+04
B3	1.89E+05
B4	3.87E+06
B5	6.83E+07
B6	4.41E+06
B7	3.73E+05
B8	3.08E+06
B9	1.01E+05
